This assay has as its target CHIKV VLPs, E1-E2 heterodimers on the particle surface (Chikungunya virus, VLP strain not …, UniProt Q5XXP3). Nature of the assay: ELISA. A general note: In an ELISA, binding on a coated surface is turned into a signal by an enzyme label.

The record followed here is paper PMC7959576 (Proceedings of the National Academy of Sciences of the …, 2020).

CHIKV VLPs, E1-E2 heterodimers on the particle surface, sequence (Q5XXP3 whole entry, looked up, one chain of several): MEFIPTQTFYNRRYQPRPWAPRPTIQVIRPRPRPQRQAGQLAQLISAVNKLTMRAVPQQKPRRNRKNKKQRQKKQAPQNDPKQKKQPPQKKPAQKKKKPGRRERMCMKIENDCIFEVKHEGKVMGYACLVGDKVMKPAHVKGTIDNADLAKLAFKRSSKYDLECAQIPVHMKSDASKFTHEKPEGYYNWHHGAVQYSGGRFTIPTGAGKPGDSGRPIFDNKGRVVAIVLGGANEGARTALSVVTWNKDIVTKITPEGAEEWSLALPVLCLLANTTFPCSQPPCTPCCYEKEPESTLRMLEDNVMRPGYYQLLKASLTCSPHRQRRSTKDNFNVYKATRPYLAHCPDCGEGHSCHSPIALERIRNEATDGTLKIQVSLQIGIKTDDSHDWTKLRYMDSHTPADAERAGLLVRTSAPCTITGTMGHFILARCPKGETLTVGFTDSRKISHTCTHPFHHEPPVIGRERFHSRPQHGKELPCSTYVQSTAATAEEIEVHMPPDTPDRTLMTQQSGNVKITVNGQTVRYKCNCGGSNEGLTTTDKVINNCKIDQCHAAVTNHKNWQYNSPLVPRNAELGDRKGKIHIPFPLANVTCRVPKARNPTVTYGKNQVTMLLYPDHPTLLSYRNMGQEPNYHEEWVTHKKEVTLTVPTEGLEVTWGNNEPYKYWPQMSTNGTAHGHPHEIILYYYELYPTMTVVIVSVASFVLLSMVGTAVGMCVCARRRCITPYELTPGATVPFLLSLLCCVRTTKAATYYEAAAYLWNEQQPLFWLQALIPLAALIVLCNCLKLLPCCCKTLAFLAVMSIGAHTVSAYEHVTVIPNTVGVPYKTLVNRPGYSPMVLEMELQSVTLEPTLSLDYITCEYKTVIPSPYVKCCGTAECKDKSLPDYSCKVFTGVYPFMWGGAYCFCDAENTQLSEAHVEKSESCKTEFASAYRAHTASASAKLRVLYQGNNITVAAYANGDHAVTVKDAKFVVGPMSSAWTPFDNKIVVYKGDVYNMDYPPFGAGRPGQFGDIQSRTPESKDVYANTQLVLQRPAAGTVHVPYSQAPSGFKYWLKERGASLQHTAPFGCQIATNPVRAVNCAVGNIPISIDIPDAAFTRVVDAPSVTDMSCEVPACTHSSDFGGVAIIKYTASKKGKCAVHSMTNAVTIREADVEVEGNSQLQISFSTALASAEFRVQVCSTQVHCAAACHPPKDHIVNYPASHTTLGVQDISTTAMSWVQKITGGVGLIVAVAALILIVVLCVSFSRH

B1: CHK-124 IgG (antibody, V domains shown)
VH: QLQESGGGLVQPGGSMKLSCVASGFTFSNYWMNWVRQSPEKGLEWVAQIRLKSDSYATYYADSVKGRFTVSRDDSKSNVYLQMNSLRAEDTGIYYCTDFYGFGDFFPYWGQGTLVTVSS
VL: DIVMTQSPKFMSTSIGDRVSVTCQASQNVGTNVAWYQQKPGQSPKPLIYSASYRYSGVPGRFTGSGSGTDFTLTINNVQSEDLADYFCQQYNSFPLTFGAGTKLELK
For the molecule B1, the binding result is reported as “binds”.

B2: CHK-263 IgG (antibody, V domains shown)
VH: VQLQQSGAELVKPGASVKISCKASGYAFSSYWMNWVKQRPGKGLEWIGQIYPGDGDTNYNGKFKGKATLTADKSSSTAYMQLSSLTSEDSAVYFCARGGLTIDYWGQGTTLTVSS
VL: DIVLTQSPATLSVTPGDSVSLSCRASQSISDNLHWYQQKSHESPGLLIKYASQSISGIPSRFSGSGSGTDFTLSINSVETEDFGMYFCQQSNSWPYTFGGGTKLEIK
As for B2, the binding result is given as “binds”.
